{"source": "patent US20240132578A1", "binders": {"B1": {"name": "1503_H05 (PG16) (TCN-119) (antibody, V domains shown)", "VH": "QEKLVESGGGVVQPGGSLRLSCLASGFTFHKYGMHWVRQAPGKGLEWVALISDDGMRKYHSDSMWGRVTISRDNSKNTLYLQFSSLKVEDTAMFFCAREAGGPIWHDDVKYYDFNDGYYNYHYMDVWGKGTIVTVSS", "VL": "QSALTQPASVSGSPGQTITISCNGTRSDVGGFDSVSWYQQSPGKAPKVMVFDVSHRPSGISNRFSGSKSGNTASLTISGLHIEDEGDYFCSSLTDRSHRIFGGGTKVTVLG"}, "B2": {"name": "1456_A12 (PG16) (TCN-117) (antibody, V domains shown)", "VH": "B1 VH with Q1H, K3Q, S7A, K87R, I132K", "VL": "B1 VL with R26S, S27R, I60M, V107L"}, "B3": {"name": "1469_M23 (PG16) (TCN-118) (antibody, V domains shown)", "VH": "B1 VH with I132T", "VL": "B1 VL with K44R, V107L"}, "B4": {"name": "1489_I13 (PG16) (TCN-120) (antibody, V domains shown)", "VH": "B1 VH with K3Q, V5L, D62N, I132T", "VL": "B1 VL with R26S"}}, "assay_in_all_cases": "cell-based or functional assay", "key": {"[1]": {"molecular_target": "HIV-1 Env of pseudovirus Du172 (HIV-1)"}, "[2]": {"molecular_target": "HIV-1 Env of pseudovirus ZM214 (HIV-1)"}, "[3]": {"molecular_target": "HIV-1 Env of pseudovirus CAAN (HIV-1)"}, "[4]": {"molecular_target": "Envelope protein of control pseudovirus MuLV (MuLV)"}, "[5]": {"molecular_target": "HIV-1 Env of pseudovirus DU156 (HIV-1)"}, "[6]": {"molecular_target": "HIV-1 Env of pseudovirus DU422 (HIV-1)"}, "[7]": {"molecular_target": "HIV-1 Env of pseudovirus ZM249 (HIV-1)"}, "[8]": {"molecular_target": "HIV-1 Env of pseudovirus REJ04541 (HIV-1)"}, "[9]": {"molecular_target": "HIV-1 Env of pseudovirus AC10 (HIV-1)"}, "[10]": {"molecular_target": "HIV-1 Env of pseudovirus ZM233 (HIV-1)"}, "[11]": {"molecular_target": "HIV-1 92RW020 envelope glycoprotein (Env), on pseudovirus (HIV-1 isolate 92RW020 (clade A))"}, "[12]": {"molecular_target": "HIV-1 ADA envelope glycoprotein (Env), on pseudovirus (HIV-1 isolate ADA)"}, "[13]": {"molecular_target": "HIV-1 Env of pseudovirus PVO.4 (HIV-1)"}, "[14]": {"molecular_target": "HIV-1 Env of pseudovirus THRO.18 (HIV-1)"}, "[15]": {"molecular_target": "HIV-1 Env of pseudovirus CAP45 (HIV-1)"}, "[16]": {"molecular_target": "HIV-1 JR-FL Env E168K, on pseudovirus (HIV-1 isolate JR-FL (clade B))"}, "[17]": {"molecular_target": "HIV-1 Env of pseudovirus TR0.11 (HIV-1)"}}, "note": "Changes are numbered by the printed parent chain.", "data": [{"binder": "B1", "values": [{"measurement": "IC50, pseudovirus neutralization (TZM-bl assay)", "setting": "[1]", "result": "< 0.01", "unit": "µg/mL"}, {"measurement": "IC50, pseudovirus neutralization (TZM-bl assay)", "setting": "[2]", "result": "> 25", "unit": "µg/mL"}, {"measurement": "IC50, pseudovirus neutralization (TZM-bl assay)", "setting": "[3]", "result": 13.5, "unit": "µg/mL"}, {"measurement": "IC50, pseudovirus neutralization (TZM-bl assay), control virus", "setting": "[4]", "result": "> 25", "unit": "µg/mL"}, {"measurement": "IC50, pseudovirus neutralization (TZM-bl assay)", "setting": "[5]", "result": "< 0.01", "unit": "µg/mL"}, {"measurement": "IC50, pseudovirus neutralization (TZM-bl assay)", "setting": "[6]", "result": 0.71, "unit": "µg/mL"}, {"measurement": "IC50, pseudovirus neutralization (TZM-bl assay)", "setting": "[7]", "result": "< 0.01", "unit": "µg/mL"}, {"measurement": "IC50, pseudovirus neutralization (TZM-bl assay)", "setting": "[8]", "result": 0.22, "unit": "µg/mL"}, {"measurement": "IC50, pseudovirus neutralization (TZM-bl assay)", "setting": "[9]", "result": "< 0.01", "unit": "µg/mL"}, {"measurement": "IC50, pseudovirus neutralization (TZM-bl assay)", "setting": "[10]", "result": "< 0.01", "unit": "µg/mL"}, {"measurement": "IC50 (ug/ml), pseudovirus neutralization, TZM-bl assay", "setting": "[11]", "result": 0.02, "unit": "µg/mL"}, {"measurement": "IC50 (ug/ml), pseudovirus neutralization, TZM-bl assay", "setting": "[12]", "result": 0.003, "unit": "µg/mL"}, {"measurement": "IC50, pseudovirus neutralization (TZM-bl assay)", "setting": "[13]", "result": 11, "unit": "µg/mL"}, {"measurement": "IC50, pseudovirus neutralization (TZM-bl assay)", "setting": "[14]", "result": 4.12, "unit": "µg/mL"}, {"measurement": "IC50, pseudovirus neutralization (TZM-bl assay)", "setting": "[15]", "result": "< 0.01", "unit": "µg/mL"}, {"measurement": "IC50 (ug/ml), pseudovirus neutralization, TZM-bl assay", "setting": "[16]", "result": 0.002, "unit": "µg/mL"}, {"measurement": "IC50, pseudovirus neutralization (TZM-bl assay)", "setting": "[17]", "result": 4.3, "unit": "µg/mL"}]}, {"binder": "B2", "values": [{"measurement": "IC50, pseudovirus neutralization (TZM-bl assay)", "setting": "[1]", "result": "< 0.01", "unit": "µg/mL"}, {"measurement": "IC50, pseudovirus neutralization (TZM-bl assay)", "setting": "[2]", "result": "> 25", "unit": "µg/mL"}, {"measurement": "IC50, pseudovirus neutralization (TZM-bl assay)", "setting": "[3]", "result": 10.6, "unit": "µg/mL"}, {"measurement": "IC50, pseudovirus neutralization (TZM-bl assay), control virus", "setting": "[4]", "result": "> 25", "unit": "µg/mL"}, {"measurement": "IC50, pseudovirus neutralization (TZM-bl assay)", "setting": "[5]", "result": "< 0.01", "unit": "µg/mL"}, {"measurement": "IC50, pseudovirus neutralization (TZM-bl assay)", "setting": "[6]", "result": 0.36, "unit": "µg/mL"}, {"measurement": "IC50, pseudovirus neutralization (TZM-bl assay)", "setting": "[7]", "result": "< 0.01", "unit": "µg/mL"}, {"measurement": "IC50, pseudovirus neutralization (TZM-bl assay)", "setting": "[8]", "result": "< 0.01", "unit": "µg/mL"}, {"measurement": "IC50, pseudovirus neutralization (TZM-bl assay)", "setting": "[9]", "result": "< 0.01", "unit": "µg/mL"}, {"measurement": "IC50, pseudovirus neutralization (TZM-bl assay)", "setting": "[10]", "result": "< 0.01", "unit": "µg/mL"}, {"measurement": "IC50 (ug/ml), pseudovirus neutralization, TZM-bl assay", "setting": "[11]", "result": 0.05, "unit": "µg/mL"}, {"measurement": "IC50 (ug/ml), pseudovirus neutralization, TZM-bl assay", "setting": "[12]", "result": 0.005, "unit": "µg/mL"}, {"measurement": "IC50, pseudovirus neutralization (TZM-bl assay)", "setting": "[13]", "result": 10.4, "unit": "µg/mL"}, {"measurement": "IC50, pseudovirus neutralization (TZM-bl assay)", "setting": "[14]", "result": 2.08, "unit": "µg/mL"}, {"measurement": "IC50, pseudovirus neutralization (TZM-bl assay)", "setting": "[15]", "result": "< 0.01", "unit": "µg/mL"}, {"measurement": "IC50 (ug/ml), pseudovirus neutralization, TZM-bl assay", "setting": "[16]", "result": 0.003, "unit": "µg/mL"}, {"measurement": "IC50, pseudovirus neutralization (TZM-bl assay)", "setting": "[17]", "result": 3.05, "unit": "µg/mL"}]}, {"binder": "B3", "values": [{"measurement": "IC50, pseudovirus neutralization (TZM-bl assay)", "setting": "[1]", "result": "< 0.01", "unit": "µg/mL"}, {"measurement": "IC50, pseudovirus neutralization (TZM-bl assay)", "setting": "[2]", "result": "> 25", "unit": "µg/mL"}, {"measurement": "IC50, pseudovirus neutralization (TZM-bl assay)", "setting": "[3]", "result": 17.7, "unit": "µg/mL"}, {"measurement": "IC50, pseudovirus neutralization (TZM-bl assay), control virus", "setting": "[4]", "result": "> 25", "unit": "µg/mL"}, {"measurement": "IC50, pseudovirus neutralization (TZM-bl assay)", "setting": "[5]", "result": "< 0.01", "unit": "µg/mL"}, {"measurement": "IC50, pseudovirus neutralization (TZM-bl assay)", "setting": "[6]", "result": 0.97, "unit": "µg/mL"}, {"measurement": "IC50, pseudovirus neutralization (TZM-bl assay)", "setting": "[7]", "result": "< 0.01", "unit": "µg/mL"}, {"measurement": "IC50, pseudovirus neutralization (TZM-bl assay)", "setting": "[8]", "result": 0.39, "unit": "µg/mL"}, {"measurement": "IC50, pseudovirus neutralization (TZM-bl assay)", "setting": "[9]", "result": "< 0.01", "unit": "µg/mL"}, {"measurement": "IC50, pseudovirus neutralization (TZM-bl assay)", "setting": "[10]", "result": "< 0.01", "unit": "µg/mL"}, {"measurement": "IC50 (ug/ml), pseudovirus neutralization, TZM-bl assay", "setting": "[11]", "result": 0.05, "unit": "µg/mL"}, {"measurement": "IC50 (ug/ml), pseudovirus neutralization, TZM-bl assay", "setting": "[12]", "result": 0.005, "unit": "µg/mL"}, {"measurement": "IC50, pseudovirus neutralization (TZM-bl assay)", "setting": "[13]", "result": 21.2, "unit": "µg/mL"}, {"measurement": "IC50, pseudovirus neutralization (TZM-bl assay)", "setting": "[14]", "result": 7.01, "unit": "µg/mL"}, {"measurement": "IC50, pseudovirus neutralization (TZM-bl assay)", "setting": "[15]", "result": "< 0.01", "unit": "µg/mL"}, {"measurement": "IC50 (ug/ml), pseudovirus neutralization, TZM-bl assay", "setting": "[16]", "result": 0.005, "unit": "µg/mL"}, {"measurement": "IC50, pseudovirus neutralization (TZM-bl assay)", "setting": "[17]", "result": 7.52, "unit": "µg/mL"}]}, {"binder": "B4", "values": [{"measurement": "IC50, pseudovirus neutralization (TZM-bl assay)", "setting": "[1]", "result": "< 0.01", "unit": "µg/mL"}, {"measurement": "IC50, pseudovirus neutralization (TZM-bl assay)", "setting": "[2]", "result": "> 25", "unit": "µg/mL"}, {"measurement": "IC50, pseudovirus neutralization (TZM-bl assay)", "setting": "[3]", "result": 24.9, "unit": "µg/mL"}, {"measurement": "IC50, pseudovirus neutralization (TZM-bl assay), control virus", "setting": "[4]", "result": "> 25", "unit": "µg/mL"}, {"measurement": "IC50, pseudovirus neutralization (TZM-bl assay)", "setting": "[5]", "result": "< 0.01", "unit": "µg/mL"}, {"measurement": "IC50, pseudovirus neutralization (TZM-bl assay)", "setting": "[6]", "result": 1.87, "unit": "µg/mL"}, {"measurement": "IC50, pseudovirus neutralization (TZM-bl assay)", "setting": "[7]", "result": "< 0.01", "unit": "µg/mL"}, {"measurement": "IC50, pseudovirus neutralization (TZM-bl assay)", "setting": "[8]", "result": 0.34, "unit": "µg/mL"}, {"measurement": "IC50, pseudovirus neutralization (TZM-bl assay)", "setting": "[9]", "result": "< 0.01", "unit": "µg/mL"}, {"measurement": "IC50, pseudovirus neutralization (TZM-bl assay)", "setting": "[10]", "result": "< 0.01", "unit": "µg/mL"}, {"measurement": "IC50 (ug/ml), pseudovirus neutralization, TZM-bl assay", "setting": "[11]", "result": 0.03, "unit": "µg/mL"}, {"measurement": "IC50 (ug/ml), pseudovirus neutralization, TZM-bl assay", "setting": "[12]", "result": 0.008, "unit": "µg/mL"}, {"measurement": "IC50, pseudovirus neutralization (TZM-bl assay)", "setting": "[13]", "result": 20.6, "unit": "µg/mL"}, {"measurement": "IC50, pseudovirus neutralization (TZM-bl assay)", "setting": "[14]", "result": 7.41, "unit": "µg/mL"}, {"measurement": "IC50, pseudovirus neutralization (TZM-bl assay)", "setting": "[15]", "result": "< 0.01", "unit": "µg/mL"}, {"measurement": "IC50 (ug/ml), pseudovirus neutralization, TZM-bl assay", "setting": "[16]", "result": 0.005, "unit": "µg/mL"}, {"measurement": "IC50, pseudovirus neutralization (TZM-bl assay)", "setting": "[17]", "result": 10.9, "unit": "µg/mL"}]}]}
